Measurements published in patent US20150219635A1.

Target: IgE-Fc(E289C)_BirA, terbium chelate labelled, biotinylated, mixed with Alexa488 labelled streptavidin (human), P01854
Assay: cell-based or functional assay

Sequence of IgE-Fc(E289C)_BirA, terbium chelate labelled, biotinylated, mixed with Alexa488 labelled streptavidin (human), P01854 (P01854 other isoform, or with tags, fused parts or gaps, stated change not applied): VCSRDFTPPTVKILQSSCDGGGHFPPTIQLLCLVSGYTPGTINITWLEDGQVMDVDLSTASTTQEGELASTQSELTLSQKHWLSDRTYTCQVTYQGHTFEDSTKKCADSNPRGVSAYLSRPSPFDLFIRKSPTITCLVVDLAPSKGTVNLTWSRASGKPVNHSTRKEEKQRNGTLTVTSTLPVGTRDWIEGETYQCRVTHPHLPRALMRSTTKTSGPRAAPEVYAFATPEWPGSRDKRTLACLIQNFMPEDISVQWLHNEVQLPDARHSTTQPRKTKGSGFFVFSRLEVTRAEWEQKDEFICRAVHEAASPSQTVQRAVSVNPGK

B1: Fab7 (anti-human IgE Fab, human IgG1 Fab format) (Fab)
heavy: QVQLQQSGPGLVKPSQTLSLTCGISGDSVSSNSAAWNWLRQSPSRGLEWLGRTYYRSKWYNDYAVSMKSRITINPDTSRNQFSLQLNSVTPEDTAVYYCARDGEISYDYYYYGMDVWGRGTLVTVSSASTKGPSVFPLAPSSKSTSGGTAALGCLVKDYFPEPVTVSWNSGALTSGVHTFPAVLQSSGLYSLSSVVTVPSSSLGTQTYICNVNHKPSNTKVDKKVEPKSC
light: not shown
modifications: here or on the partner: thiol reactive terbium chelate on the Cys of E289C; biotin on the C-terminal BirA recognition motif (carrying Alexa488 labelled streptavidin)
Q: For B1, which normalised FRET, mean, at [Fab] 0.152 nM is on record?
A: Its normalised FRET, mean, at [Fab] 0.152 nM is 1.

Q: And the normalised FRET, mean, at [Fab] 0.45 nM?
A: The normalised FRET, mean, at [Fab] 0.45 nM was 0.2.

Q: What about the normalised FRET, mean, at [Fab] 1.37 nM of the same binder?
A: The normalised FRET, mean, at [Fab] 1.37 nM was 1.55.

Q: What about the normalised FRET, mean, at [Fab] 4.4 nM of the same binder?
A: The normalised FRET, mean, at [Fab] 4.4 nM was 0.1.

Q: And the normalised FRET, mean, at [Fab] 12.3 nM?
A: The normalised FRET, mean, at [Fab] 12.3 nM was 2.

Q: And the normalised FRET, mean, at [Fab] 37.03 nM?
A: Its normalised FRET, mean, at [Fab] 37.03 nM is 9.68.

Q: What about the normalised FRET, mean, at [Fab] 111 nM of the same binder?
A: The normalised FRET, mean, at [Fab] 111 nM was 28.8.

Q: And the normalised FRET, mean, at [Fab] 333 nM?
A: The normalised FRET, mean, at [Fab] 333 nM was 39.3.

Q: What about the normalised FRET, mean, at [Fab] 1000 nM of the same binder?
A: The normalised FRET, mean, at [Fab] 1000 nM was 43.4.

Q: And the normalised FRET, mean, at [Fab] 3000 nM?
A: The normalised FRET, mean, at [Fab] 3000 nM was 41.
